From patent US9988424 (DUKE UNIVERSITY, dated 2018) come the findings set out here.

The target of assay [1] is AE.con gp140CF. The assay is described as follows: ELISA, OD405 at 10 ug/ml.
Assay [2] addresses B. 681-7 gp140C. The assay can be described thus: ELISA, OD405. (In general: An ELISA detects its analyte on a solid surface through an enzyme-linked reagent.)
For assay [3], the target named is B. 684-6 gp140C. The assay is described as follows: ELISA, OD405.
Assay [4] concerns the target B.040 gp140C. The assay is described as follows: ELISA, OD405.
Assay [5] deals with T1, B.62357 140C.
T1 construct: also called B.62357 gp140C
The assay is described as follows: ELISA, OD405.

Assay [6] addresses B.63521 gp140C. The assay is described as follows: ELISA, OD405.
Assay [7] has as its target T2, B.63521_V1V2 Tags.
T2 Env construct: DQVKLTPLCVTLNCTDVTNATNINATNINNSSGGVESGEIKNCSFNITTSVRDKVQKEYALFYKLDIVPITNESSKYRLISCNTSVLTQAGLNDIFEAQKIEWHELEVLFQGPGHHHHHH
The assay can be described thus: ELISA, OD405.

Assay [8] deals with Con 6 gp120. The assay can be described thus: ELISA, OD405.
Assay [9] concerns the target T3, G.con gp140CF.
T3 construct: also called G.con.env03 gp140CF
The assay is described as follows: ELISA, OD405.

Assay [10] addresses T4, B.HXB/BAL gp140CFI (HIV-1, UniProt P04578 33-680).
T4 construct: also called B.HxB/Ba gp140 CFI
The assay can be described thus: ELISA, OD405.

Assay [11] concerns the target T5, SIV CPZ US-1 gp140CF (SIVcpz).
T5 construct: also called US-1 SIVCPZ gp140CF
T5 chain: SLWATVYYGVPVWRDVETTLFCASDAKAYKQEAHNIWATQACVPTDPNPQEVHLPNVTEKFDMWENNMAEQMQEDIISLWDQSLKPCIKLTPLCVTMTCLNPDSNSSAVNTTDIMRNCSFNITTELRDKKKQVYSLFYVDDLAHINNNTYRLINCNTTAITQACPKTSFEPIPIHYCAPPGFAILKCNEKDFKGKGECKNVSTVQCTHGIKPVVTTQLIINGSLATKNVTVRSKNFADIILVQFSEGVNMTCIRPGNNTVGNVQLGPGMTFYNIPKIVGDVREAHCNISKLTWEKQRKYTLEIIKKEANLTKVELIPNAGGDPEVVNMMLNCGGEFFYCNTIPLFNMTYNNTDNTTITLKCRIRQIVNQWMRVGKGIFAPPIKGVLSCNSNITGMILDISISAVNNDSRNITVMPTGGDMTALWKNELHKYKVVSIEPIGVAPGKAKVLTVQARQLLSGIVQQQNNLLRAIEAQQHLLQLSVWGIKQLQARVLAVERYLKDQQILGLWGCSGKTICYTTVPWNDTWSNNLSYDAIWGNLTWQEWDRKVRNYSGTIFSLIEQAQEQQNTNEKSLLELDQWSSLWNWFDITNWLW
The assay can be described thus: ELISA, OD405.

The target of assay [12] is T6, J08 A.92RW020V1V2/N156QN160Q (HIV-1).
T6 construct: also called J08 A.92RW020VV1V2/N156QN160Q
The assay can be described thus: ELISA, mAb 0.001-100 ug/ml on coated V1V2 scaffold, OD450.

For assay [13], the target named is T7, gp70 B.HXB2/BALV1V2 (murine leukemia virus; HIV-1).
T7 chain: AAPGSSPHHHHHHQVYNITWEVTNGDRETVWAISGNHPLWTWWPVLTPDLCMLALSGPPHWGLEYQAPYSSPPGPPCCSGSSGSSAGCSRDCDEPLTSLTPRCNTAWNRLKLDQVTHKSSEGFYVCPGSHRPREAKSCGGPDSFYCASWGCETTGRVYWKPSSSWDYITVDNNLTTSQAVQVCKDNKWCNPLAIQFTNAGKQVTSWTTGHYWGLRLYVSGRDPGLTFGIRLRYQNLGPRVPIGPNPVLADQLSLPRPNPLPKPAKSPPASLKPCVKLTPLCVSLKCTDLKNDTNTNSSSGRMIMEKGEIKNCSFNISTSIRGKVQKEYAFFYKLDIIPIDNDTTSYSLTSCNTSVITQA
The description is as above.

Assay [14] has as its target T8, gp70 B.HXB2/BALV1V2/N156QN160Q (murine leukemia virus; HIV-1).
T8 chain: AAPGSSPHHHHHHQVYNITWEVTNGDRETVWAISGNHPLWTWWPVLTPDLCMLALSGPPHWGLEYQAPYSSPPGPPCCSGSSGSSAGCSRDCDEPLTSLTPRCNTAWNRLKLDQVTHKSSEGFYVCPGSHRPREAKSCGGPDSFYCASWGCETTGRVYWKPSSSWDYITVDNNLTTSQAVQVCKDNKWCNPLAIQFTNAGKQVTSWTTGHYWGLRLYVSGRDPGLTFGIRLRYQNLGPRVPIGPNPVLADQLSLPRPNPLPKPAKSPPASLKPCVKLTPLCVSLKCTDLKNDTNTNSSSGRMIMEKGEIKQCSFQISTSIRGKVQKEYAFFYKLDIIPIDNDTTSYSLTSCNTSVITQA
The description is as above.

Assay [15] deals with T9, J08 B.HXB2/BALV1V2 (HIV-1).
T9 construct: also called J08 B.HXB/BAL V1V2
T9 chain: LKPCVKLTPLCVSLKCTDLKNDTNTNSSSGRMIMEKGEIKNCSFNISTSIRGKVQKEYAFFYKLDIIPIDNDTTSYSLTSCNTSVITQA
Described as above.

The target of assay [16] is T10, J08 B.HXB2/BALV1V2N156QN160Q (HIV-1).
T10 chain: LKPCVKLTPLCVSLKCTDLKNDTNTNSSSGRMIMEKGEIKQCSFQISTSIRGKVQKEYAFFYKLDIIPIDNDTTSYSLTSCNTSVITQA
The assay is described as above.

For assay [17], the target named is AE.A244 V1V2 Tags (HIV-1). The assay can be described thus: ELISA; markers as in the legend printed on D00157.
Assay [18] has as its target A.Q23 V1V2 tags (HIV-1). The assay is described as follows: ELISA OD405nm, bar chart, antibody concentration not given.

B1: 697D reverted unmutated ancestor antibody (antibody, V domains shown)
VH: QVQLVQSGAEVKKPGSSVKVSCKASGGTFSSYTISWVRQAPGQGLEWMGRIIPILGIANYAQKFQGRVTITADKSTSTAYMELSSLRSEDTAVYYCATSGVGLHFGYFDYWGQGTLVTVSS
VL: QSVLTQPPSVSGAPGQRVTISCTGSSSNIGAGYDVHWYQQLPGTAPKLLIYGNSNRPSGVPDRFSGSKSGTSASLAITGLQAEDEADYYCQSYDSSLSGYVFGTGTKVTVL
notes: also called 697D RUA
In the case of B1, the binding result in assay [1] is on record as “no binding (tested: 10 ug/ml)”.

B2: CH59 (antibody, V domains shown)
VH: EVQLVESGGGLVQPGRSLRLSCAASGFTFDDGAMHWVRQAPGKGLEWVSGISWNSNIIAYADSVKGRFTISRDNAKNSLYLEMNSLRVEDTALYYCAKDSPRGELPLNYWGQGTLVTVSS
VL: SYELTQPPSVSVSPGQTARITCSGDALPKNYAYWYQQKSGQAPVLVIYEDSKRPSGIPERFSGSSSGTMATLTISGAQVEDEADYYCYSTDSSGNHRVFGGGTKLTVL
notes: also called mAb CH59
On to B2, for which the binding result in [2], in [3], in [4], in [5], in assay [6] and in [7] was “no binding (tested: 10 ug/ml)” each time. For the same molecule, the binding result in assay [8] was “no binding (tested: 10 ug/ml)”; in [9], “no binding (tested: 10 ug/ml)”; in assay [10], “no binding (tested: 10 ug/ml)”; in assay [11], “no binding (tested: 10 ug/ml)”; in [12], “no binding (tested: 100 ug/ml)”; in assay [13], “no binding (tested: 100 ug/ml)”. In addition, the binding result in assay [14], in [15] and in [16] was “no binding (tested: 100 ug/ml)” each time.

B3: CH59 reverted unmutated ancestor antibody (antibody, V domains shown)
VH: EVQLVESGGGLVQPGRSLRLSCAASGFTFDDYAMHWVRQAPGKGLEWVSGISWNSGSIGYADSVKGRFTISRDNAKNSLYLQMNSLRAEDTALYYCAKDSPRGELPFDYWGQGTLVTVSS
VL: SYELTQPPSVSVSPGQTARITCSGDALPKKYAYWYQQKSGQAPVLVIYEDSKRPSGIPERFSGSSSGTMATLTISGAQVEDEADYYCYSTDSSGNHRVFGGGTKLTVL
notes: also called CH59 RUA; CH59_RUA
In general, EC50 (read off the curve) refers to the midpoint of the concentration-response curve. High values mean a less potent agent, low ones a more potent agent. For B3, in [17], the “EC50 (read off the curve)” value was around 0.08 µg/mL. The binding result in assay [18] is listed as “no binding (tested: not given)”.
